Data on 4 molecules can be found in PMC3699901 (Journal of molecular biology, 2013).

Ends that are not written are not given here. * marks the point of attachment. 5FAM = O=C1OC2(c3ccc(O)cc3Oc3cc(O)ccc32)c2ccc(C(=O)*)cc21

Sequences and labels used below:
T1: wild-type PXR LBD without the fused coactivator peptide (human, UniProt O75469 130-434)
T1 sequence (looked up): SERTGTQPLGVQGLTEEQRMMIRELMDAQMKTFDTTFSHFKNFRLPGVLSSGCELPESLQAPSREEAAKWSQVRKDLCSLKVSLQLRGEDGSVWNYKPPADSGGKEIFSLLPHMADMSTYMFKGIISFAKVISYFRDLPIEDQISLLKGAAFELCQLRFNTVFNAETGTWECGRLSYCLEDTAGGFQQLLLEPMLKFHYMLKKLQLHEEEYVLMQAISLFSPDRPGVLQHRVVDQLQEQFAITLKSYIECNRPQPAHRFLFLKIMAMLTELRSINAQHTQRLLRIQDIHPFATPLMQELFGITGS

T2: wild-type RXRα LBD without the fused coactivator peptide (human, UniProt P19793 227-462)
T2 sequence (looked up): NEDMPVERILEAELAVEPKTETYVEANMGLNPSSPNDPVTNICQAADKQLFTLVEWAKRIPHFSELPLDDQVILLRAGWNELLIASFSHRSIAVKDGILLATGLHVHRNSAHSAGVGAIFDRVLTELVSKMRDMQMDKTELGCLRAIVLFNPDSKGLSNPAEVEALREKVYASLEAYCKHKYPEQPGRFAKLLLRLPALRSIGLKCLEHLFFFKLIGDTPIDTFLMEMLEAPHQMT

T3: PXR LBD (residues 130-434), the LBD part of the crystallised fusion chain (human, UniProt O75469 130-434)
T3 sequence (looked up): T1 sequence (looked up)

T4: RXRα LBD (residues 227-462), the LBD part of the crystallised fusion chain (human, UniProt P19793 227-462)
T4 sequence (looked up): T2 sequence (looked up)

B1: PXR/RXRα LBD heterotetramer complex of unfused PXR LBD with SRC-1-fused RXRα LBD (complex, human)
chain 1: T1 sequence (looked up)
chain 2: NEDMPVERILEAELAVEPKTETYVEANMGLNPSSPNDPVTNICQAADKQLFTLVEWAKRIPHFSELPLDDQVILLRAGWNELLIASFSHRSIAVKDGILLATGLHVHRNSAHSAGVGAIFDRVLTELVSKMRDMQMDKTELGCLRAIVLFNPDSKGLSNPAEVEALREKVYASLEAYCKHKYPEQPGRFAKLLLRLPALRSIGLKCLEHLFFFKLIGDTPIDTFLMEMLEAPHQMTGGSGGSSHSSLTERHKILHRLLQEGSPS
B2: PXR/RXRα LBD heterotetramer complex of SRC-1 fused PXR LBD with unfused RXRα LBD (complex, human)
chain 1: T2 sequence (looked up)
chain 2: SERTGTQPLGVQGLTEEQRMMIRELMDAQMKTFDTTFSHFKNFRLPGVLSSGCELPESLQAPSREEAAKWSQVRKDLCSLKVSLQLRGEDGSVWNYKPPADSGGKEIFSLLPHMADMSTYMFKGIISFAKVISYFRDLPIEDQISLLKGAAFELCQLRFNTVFNAETGTWECGRLSYCLEDTAGGFQQLLLEPMLKFHYMLKKLQLHEEEYVLMQAISLFSPDRPGVLQHRVVDQLQEQFAITLKSYIECNRPQPAHRFLFLKIMAMLTELRSINAQHTQRLLRIQDIHPFATPLMQELFGITGSGGSGGSSHSSLTERHKILHRLLQEGSPS
B3: fluorescein labeled SRC-1 peptide (5-FAM-[residues removed]), residues 676-700 (peptide)
peptide: 5FAM-CPSSHSSLTERHKILHRLLQEGSPS

Assay [1] concerns the target B3. Kind of assay: fluorescence polarisation. (In fluorescence polarisation assays a small probe gives low polarisation when free and higher when bound to something large.)
Assay [2] addresses T1, wild-type PXR LBD without the fused …. Briefly: fluorescence polarisation.
The target in assay [3] is T2, wild-type RXRα LBD without the fused …. Kind of assay: fluorescence polarisation.
Assay [4] addresses T3, PXR LBD (residues 130-434), the LBD …. Briefly: crystal structure.
Assay [5] has as its target T4, RXRα LBD (residues 227-462), the LBD …. Briefly: crystal structure.

What is called Kd is the concentration at which binding is half-saturated. Low values mean higher affinity, high ones lower affinity. Molecule B1 came in with a dissociation constant Kd in assay [1] of 0.588 ± 0.0297 µM. Take B2: the Kd in assay [1] came to 0.778 ± 0.0888 µM. As for B3, the values for the Kd in assay [2] and in assay [3] were 1.18 ± 0.0922 µM and 1.56 ± 0.198 µM, respectively. As for SSHSSLTERHKILHRLLQEGSPS, the binding result in assay [4] and in assay [5] was “binds” each time.
